These results are taken from PMC3852661, “Structural basis of SUFU–GLI interaction in human Hedgehog signalling regulation” (Acta Crystallographica Section D: Biological Crystallography, 2013).

First the molecules themselves.
B1: MBP-SUFU-Δ (domain or fragment, human)
chain: PGLHAIYGECRRLYPDQPNPLQVTAIVKYWLGGPDPLDYVSMYRNVGSPSANIPEHWHYISFGLSDLYGDNRVHEFTGTDGPSGFGFELTFRLKRETGESAPPTWPAELMQGLARYVFQSENTFCSGDHVSWHSPLDNSESRIQHMLLTEDPQMQPVQTPFGVVTFLQIVGVCTEELHSAQQWNGQGILELLRTVPIAGGPWLITDMRRGETIFEIDPHLQERVDKGIETDGSNLSGVSAKCAWDDLPSRGEDPIRTRQLESVHLKFNQESGALIPLCLRGRLLHGRHFTYKSITGDMAITFVSTGVEGAFATEEHPYAAHGPWLQILLTEEFVEKMLEDLEDLTSPEEFKLPKEYSWPEKKLKVSILPDVVFDSPL
notes: human SUFU, residues 32-278; heptamer that replaces amino acids 279-360 (the IDR); human SUFU, residues 361-483; Same frame as MBP-SUFU-FL (three-alanine linker after MBP); source: E. coli JM109 (DE3), purified (HisTrap, SEC); not shown: MBP, N-terminal, kept
B2: GLI1p (peptide, UniProt P08151 115-131, looked up)
peptide: TSPGGSYGHLSIGTMSP
notes: human GLI1, residues 115-131, holds the SYGH motif; also called human GLI1-derived peptide; source: synthetic peptide (Dr W. Mawby, University of Bristol)
B3: GLI3p (peptide, UniProt P10071 328-344, looked up)
peptide: SSASGSYGHLSASAISP
notes: human GLI3, residues 328-344
B4: MBP-SUFU-FL (domain or fragment, human, UniProt Q9UMX1 32-483, looked up)
chain: PGLHAIYGECRRLYPDQPNPLQVTAIVKYWLGGPDPLDYVSMYRNVGSPSANIPEHWHYISFGLSDLYGDNRVHEFTGTDGPSGFGFELTFRLKRETGESAPPTWPAELMQGLARYVFQSENTFCSGDHVSWHSPLDNSESRIQHMLLTEDPQMQPVQTPFGVVTFLQIVGVCTEELHSAQQWNGQGILELLRTVPIAGGPWLITDMRRGETIFEIDPHLQERVDKGIETDGSNLSGVSAKCAWDDLSRPPEDDEDSRSICIGTQPRRLSGKDTEQIRETLRRGLEINSKPVLPPINPQRQNGLAHDRAPSRKDSLESDSSTAIIPHELIRTRQLESVHLKFNQESGALIPLCLRGRLLHGRHFTYKSITGDMAITFVSTGVEGAFATEEHPYAAHGPWLQILLTEEFVEKMLEDLEDLTSPEEFKLPKEYSWPEKKLKVSILPDVVFDSPL
notes: human SUFU (Suppressor of fused), residues 32-483, called essentially full length; MBP is joined to SUFU by a three-alanine linker; vector pLJMBP4c (Monné et al., 2008); also called SUFU_(32–483); source: E. coli JM109 (DE3), purified (HisTrap, SEC); not shown: MBP, N-terminal, kept
B5: FAM-GLI1p (peptide, UniProt P08151 115-131, looked up)
peptide: 5FAM-TSPGGSYGHLSIGTMSP
notes: human GLI1, residues 115-131; also called 5-FAM-labelled peptide; FAM-labelled GLI1p peptide; source: synthetic peptide (Pepceuticals Ltd)

Where no end group is shown, it is not given here. The star is where a group is joined. 5FAM = O=C1OC2(c3ccc(O)cc3Oc3cc(O)ccc32)c2ccc(C(=O)*)cc21

Holding throughout (conditions): both partners purified
For the data set “GLI1p”, the target named is B2. Nature of the data set: thermal stability assay (SYPRO Orange); 2.2 µM MBP-SUFU protein with 44 µM peptide; 50 mM Na HEPES pH 7.0, 50 mM NaCl, 5 mM β-mercaptoethanol; heated from 20 to 90°C; triplicate.
In data set [1] the target is T1, MBP_(A216H_K220H)-SUFU-Δ_(W61D_L62S_G63F_P453A_Δ454–456_K457A) (human, UniProt Q9UMX1 32-278; Q9UMX1 361-483, W61D | L62S | G63F | P453A | Δ454–456 | K457A).
T1 construct: human SUFU, residues 32-278, WLG61-63 mutated to DSF; heptamer that replaces amino acids 279-360 (the IDR), as in MBP-SUFU-Δ; human SUFU, residues 361-483, a flexible loop shortened; Derived from MBP-SUFU-Δ; residues 216 and 220 of the MBP moiety mutated to histidine; crystallised with zinc acetate and maltose; source: E. coli JM109 (DE3), purified (HisTrap, SEC); not shown: MBP (A216H, K220H), …
T1 sequence: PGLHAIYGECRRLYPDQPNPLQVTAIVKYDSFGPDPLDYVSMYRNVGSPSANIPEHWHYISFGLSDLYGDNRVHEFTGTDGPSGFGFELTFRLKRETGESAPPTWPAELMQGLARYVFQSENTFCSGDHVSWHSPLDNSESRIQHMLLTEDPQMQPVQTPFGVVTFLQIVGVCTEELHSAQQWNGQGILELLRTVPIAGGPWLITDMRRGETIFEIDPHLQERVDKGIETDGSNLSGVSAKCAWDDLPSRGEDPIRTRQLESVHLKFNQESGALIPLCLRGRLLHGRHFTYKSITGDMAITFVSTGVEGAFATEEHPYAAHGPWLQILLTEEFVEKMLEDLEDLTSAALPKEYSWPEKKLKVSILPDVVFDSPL
Nature of the data set: crystal structure; co-crystals of the MBP-SUFU-Δ variant with zinc acetate (1:1) and GLI1p or GLI3p (1:4); hanging drop, 4°C, PEG 3350, sodium formate.

Data set [2] deals with B4. Briefly: HDX-MS; MBP-SUFU-FL with a 5.5-fold excess of GLI3p, incubated 1 h; exchange 300, 600 and 1800 s at 4°C; 50 mM Na HEPES pH 7.0, 50 mM NaCl, 5 mM β-mercaptoethanol, 1.5 mM maltose.
The target in data set [3] is B4. Nature of the data set: MST; 50 nM FAM-GLI1p, MBP-SUFU constructs titrated (14.2–29 070 and 54–110 500 nM); 50 mM Tris–HCl pH 7.6, 150 mM NaCl, 10 mM MgCl2, 0.05% Tween-20; three independent measurements.

With B1, the “Tm shift on addition of GLI1p” value with GLI1p worked out at 3.6 °C. As to B2, the binding result in data set [1] is recorded as “binds”.

Take B3: the binding result (with MBP-SUFU-FL [2]; in data set [1]) was “binds” throughout.

Turning to B4, the “Tm shift on addition of GLI1p” value in the data set with GLI1p was 4 °C. With B5, the binding result with MBP-SUFU-FL [3] is “binds”.
